Measurements published in the supplement of paper PMC9170038.

System: MS2 coat protein
Test: apparent KD of MS2 coat protein; designed switch direction (-1 OFF switch, 1 ON switch): 1; higher = weaker reporter binding
Summary of the method: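 An oligonucleotide input, 200 uM small-molecule ligand, or no input was present during titration of SNAP-549-labelled MS2 coat protein, which was doubled from 0.7 or 1.5 nM to 3 µM. Designed RNA switches had been transcribed on Illumina chips by stalled E. coli RNA polymerase. Apparent KD per design is the median over clusters of curves fitted to normalised cluster fluorescence.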

[1] = input ligand: microRNA oligo, concentration not stated
[2] = Eterna round: R95, input ligand: microRNA oligo, concentration not stated
[3] = Eterna round: R95, input ligand: FMN 200 uM
[4] = Eterna round: R95, input ligand: none

## ACAUGAGAGUGAGGAUAUACUGUACCUACAUGUGACAUGAGGAUCACCCAUGUGGUAAGUAUGACGUAGAAGGCACAGAUAUGU [Equivalance 79 - Jieux - Same State NG 2] (Eterna round: R96, puzzle: Same State NG 2)
Input ligand: FMN 200 uM
  apparent KD of MS2 coat protein: 33.1 nM
[1]
  apparent KD of MS2 coat protein: 118 nM
Input ligand: none
  apparent KD of MS2 coat protein: 182 nM

## GGAAUAUUUACAGGAUAUGAUUUGUAAAGUCGAUCAGAAGGGUGGAUGUCUUACACGGUUUGUUACAUGAGGAUCACCCAUGUC [SameState NG1 #13] (Eterna round: R96, puzzle: Same State NG 1)
Input ligand: FMN 200 uM
  apparent KD of MS2 coat protein: 232 nM
[1]
  apparent KD of MS2 coat protein: 233 nM
Input ligand: none
  apparent KD of MS2 coat protein: 378 nM

## GCAUCACAUGAGGAUCACCCAUGUCUUCGGAGUGGAGGAUAUGGUCACUGUAAACAGUGGCCAGAAGGCCGGAUGC [SS1 - Son of Teenbexe v2] (puzzle: Same State 1)
[2]
  apparent KD of MS2 coat protein: 63.3 nM

## UGCUAUUGUAUAUUGGUGCAAGCUUUUUGACAUGAGGAUCACCCAUGUACUCGUCUUUAGCGCAGUCCGUAGACUGC (puzzle: Sensor for hsa-mir-208a)
[3]
  apparent KD of MS2 coat protein: 52.4 nM
[2]
  apparent KD of MS2 coat protein: 13.5 nM
[4]
  apparent KD of MS2 coat protein: 56.6 nM

## AUAAGUUUGAUGCUCGUCUCUCCGUACAGACAUGAGGAUCACCCAUGUAGUCAGGAAGUAGCCUGGCCAGUAUGGCC [Berave] (puzzle: Sensor for hsa-mir-208a)
[3]
  apparent KD of MS2 coat protein: 27.5 nM
[2]
  apparent KD of MS2 coat protein: 16.6 nM
[4]
  apparent KD of MS2 coat protein: 31.1 nM

## AACGUGGGCUAGCAGGAUAUACUGCGAGUAACAUGAGGAUCACCCAUGUUGUCCCGCAAGACAAUGUAGAAGGGCUGAUACCGCG [Atatlaor] (puzzle: Same State 2)
[3]
  apparent KD of MS2 coat protein: 18.1 nM
[2]
  apparent KD of MS2 coat protein: 28.4 nM
[4]
  apparent KD of MS2 coat protein: 26.5 nM

## GUUACAUGAGGAUCACCCAUGUAUGUGUGGGAGUAAGUGUCUUAGGAUAUCUAGUAGUUAAUUUAAGAGAAGGAAGAUUGUUGU [JMF's solution 55] (Eterna round: R96, puzzle: Same State NG 3)
Input ligand: FMN 200 uM
  apparent KD of MS2 coat protein: 145 nM
[1]
  apparent KD of MS2 coat protein: 81.9 nM
Input ligand: none
  apparent KD of MS2 coat protein: 104 nM

## ACAUGAGACCGAGGAUAUAUUGUACCUACAUGUGACAUGAGGAUCACCCAUGUGGUAAGUAUGACAUAGAAGGCGGAGAUAUGU [Equivalance 92 - Jieux - Same State NG 2] (Eterna round: R96, puzzle: Same State NG 2)
Input ligand: FMN 200 uM
  apparent KD of MS2 coat protein: 19.6 nM
[1]
  apparent KD of MS2 coat protein: 25.9 nM
Input ligand: none
  apparent KD of MS2 coat protein: 30.1 nM

## UUAAUGAUGUUAGGAUAUACAUGAGGAAUCCUCGUAGAAGGAACAUGACAUGAGGAUCACCCAUGUAGCGCUCCGUAGAGCGCA [JL SSNG1 1.18] (Eterna round: R96, puzzle: Same State NG 1)
Input ligand: FMN 200 uM
  apparent KD of MS2 coat protein: 2460 nM
[1]
  apparent KD of MS2 coat protein: 18.5 nM
Input ligand: none
  apparent KD of MS2 coat protein: 60.3 nM

## UUGAAGAAUUAAGGAUAUUGAGUACAUAUGUUUAACAUGAGGAUCACCCAUGUGGGUUGCGGUAUCGAGAAGGUAAAUUACAAG [JL SSNG2 1.44] (Eterna round: R96, puzzle: Same State NG 2)
Input ligand: FMN 200 uM
  apparent KD of MS2 coat protein: 105 nM
[1]
  apparent KD of MS2 coat protein: 91.8 nM
Input ligand: none
  apparent KD of MS2 coat protein: 138 nM

## GUGCUCAUGUAAGGAUAUGCAGCCGUUUCGGCUGCAGAAGGUACUAUAAUACAUGAGGAUCACCCAUGUCUCUAUAAUUUGGUG [salish99_SSNG1_r04_903] (Eterna round: R96, puzzle: Same State NG 1)
[1]
  apparent KD of MS2 coat protein: 76.5 nM

## AAAAAACAUGAGGAUCACCCAUGUAAAAAUAUGGGAGGAUAUUCAAACACGAAAGUGAAAGAAGAAGGCCUAAAAA [SS! MT 18] (Eterna round: R96, puzzle: Same State 1)
Input ligand: FMN 200 uM
  apparent KD of MS2 coat protein: 17.5 nM
[1]
  apparent KD of MS2 coat protein: 56.7 nM
Input ligand: none
  apparent KD of MS2 coat protein: 81.3 nM

## CACAAUCUAUCUGAGGAUAUCAUGAAAAAAACAUGAGGAUCACCCAUGUGCAGGAAAACUGCAUAUGAGAAGGCAGAUAGAUUGG [salish99_SS2_r3_014] (puzzle: Same State 2)
[3]
  apparent KD of MS2 coat protein: 29.7 nM
[2]
  apparent KD of MS2 coat protein: 577 nM
[4]
  apparent KD of MS2 coat protein: 1090 nM

## CACGUCUAGGUAGGAUAUGAGGUGCCACAGGGAAAAGCCUAUGGACAUGAGGAUCACCCAUGUCCUCAGAAGGGCCAGACGUGA [Inzala] (Eterna round: R96, puzzle: Same State NG 2)
Input ligand: FMN 200 uM
  apparent KD of MS2 coat protein: 25.9 nM
[1]
  apparent KD of MS2 coat protein: 36.9 nM
Input ligand: none
  apparent KD of MS2 coat protein: 52.4 nM

## UGUUAUUAGACAGGAUAUUGAAUGUUAAGUAUUAACAUGAGGAUCACCCAUGUAUUUGAUUGGUACAAGAAGGGUCAUGUUUGU [JR_SSNG2_Sub015] (Eterna round: R96, puzzle: Same State NG 2)
[1]
  apparent KD of MS2 coat protein: 303 nM

## GGUAAGAAUUAAGGAUAUUGAAUACAUAUGUUUAACAUGAGGAUCACCCAUGUGGGUUGCGGUGUCGAGAAGGUAAAAUAAUAG [Mat - same State NG 2 - JL mod - D101] (Eterna round: R96, puzzle: Same State NG 2)
Input ligand: FMN 200 uM
  apparent KD of MS2 coat protein: 269 nM
[1]
  apparent KD of MS2 coat protein: 166 nM
Input ligand: none
  apparent KD of MS2 coat protein: 311 nM

## GGAGGACAUGAGGAUCACCCAUGUGGAUGAACGCUAGGAUAUGCGUGCAGGAAGAGUGGAGCAGAAGGAGUGGGAU [JR_SS1_Sub047] (puzzle: Same State 1)
[2]
  apparent KD of MS2 coat protein: 19.1 nM

## UGGCUCAGACGAGGAUAUAUGCGAUCACAUGAGGAUCACCCAUGUCUCGAGCUUCGGCUCGAGGCAUAGAAGGCGUCUGAGCCU [SSNG2/4-A3] (Eterna round: R96, puzzle: Same State NG 2)
Input ligand: FMN 200 uM
  apparent KD of MS2 coat protein: 13 nM
[1]
  apparent KD of MS2 coat protein: 25.9 nM
Input ligand: none
  apparent KD of MS2 coat protein: 27.7 nM

## UCAAGCGUUUGGCUCGUUUUAUGUUUUGUACAUGAGGAUCACCCAUGUUUUGUACGAUCCAGUUAGAUGGUAUUUUG [JR_SHM208A_Sub039] (puzzle: Sensor for hsa-mir-208a)
[3]
  apparent KD of MS2 coat protein: 39.6 nM
[2]
  apparent KD of MS2 coat protein: 93 nM
[4]
  apparent KD of MS2 coat protein: 56.8 nM

## GGUCCGGCCUGAGCUGGACCGAAGCAUGUACAUGAGGAUCACCCAUGUCAUGUACAGGCUUUUUGCUCGUCUUAUUG [JL-shm-2.13 JL Mod] (puzzle: Sensor for hsa-mir-208a)
[3]
  apparent KD of MS2 coat protein: 705 nM
[2]
  apparent KD of MS2 coat protein: 14.4 nM
[4]
  apparent KD of MS2 coat protein: 683 nM

## ACAUGAGAGAUAGGAUAUGUUGUACCUACAUGUGACAUGAGGAUCACCCAUGUGGUAAGUAUGAGGCAGAAGGAUCAGAUAUGU [Equivalence 41 - Jieux - Same State NG 2] (Eterna round: R96, puzzle: Same State NG 2)
Input ligand: FMN 200 uM
  apparent KD of MS2 coat protein: 29.2 nM
[1]
  apparent KD of MS2 coat protein: 68.1 nM
Input ligand: none
  apparent KD of MS2 coat protein: 88.1 nM

## GGAGCCGGCACUGAGGAUAUUCAUAUUAAAACAUGAGGAUCACCCAUGUAGGCCAGAAGGCCAUGGGAGAAGGCAGGUCGGCCCG [Bibimoar - 7] (puzzle: Same State 2)
[3]
  apparent KD of MS2 coat protein: 46.7 nM
[2]
  apparent KD of MS2 coat protein: 211 nM
[4]
  apparent KD of MS2 coat protein: 416 nM

## AAGUAGGAGUUACAGGAUAUAUGGAGGAGGACAUGAGGAUCACCCAUGUGAGAGAUGAGAGGAGGAUAGAAGGGUAAGGGAGUAA [JR_SS2_Sub027] (puzzle: Same State 2)
[3]
  apparent KD of MS2 coat protein: 24.1 nM
[2]
  apparent KD of MS2 coat protein: 20.9 nM
[4]
  apparent KD of MS2 coat protein: 32 nM

## UGGAGAAGUCAAGGAUAUGCUACCGUUUCGGUAGCAGAAGGUGAUCACAUGAGGAUCACCCAUGUAUGCAUGCGUGAGCGUGCU [JL SSNG1 3.55] (Eterna round: R96, puzzle: Same State NG 1)
Input ligand: FMN 200 uM
  apparent KD of MS2 coat protein: 337 nM
[1]
  apparent KD of MS2 coat protein: 15.2 nM
Input ligand: none
  apparent KD of MS2 coat protein: 125 nM

## GAGUGGUAAAGAGGAUAUGCAUUGUUAUUCACUGUAGAAGGUUUUAACAUGAGGAUCACCCAUGUAGGACUAUUCCUGUGUUUU [Parity 61 - Jieux - Same State NG 1] (Eterna round: R96, puzzle: Same State NG 1)
Input ligand: FMN 200 uM
  apparent KD of MS2 coat protein: 12.4 nM
[1]
  apparent KD of MS2 coat protein: 12.4 nM
Input ligand: none
  apparent KD of MS2 coat protein: 18.8 nM

## GACUCUAGAGGAGGAUAUGCAGAGGAUCACCCUGUAGAAGGCCUCAUAAGGAGGAUAUGCAGAGGAUCACCCUGUAGAAGGCCU [pwkr ssNG DX.20] (Eterna round: R96, puzzle: Same State NG 1)
Input ligand: FMN 200 uM
  apparent KD of MS2 coat protein: 170 nM
[1]
  apparent KD of MS2 coat protein: 85.5 nM
Input ligand: none
  apparent KD of MS2 coat protein: 272 nM

## UUACUCAUGUAAGGAUAUGCAGCCGUUUCGGCUGCAGAAGGUACUAUAAUACAUGAGGAUCACCCAUGUCUAUAAAAUAAAGAC [Mat - Same State NG 1 - JL mod - D81] (Eterna round: R96, puzzle: Same State NG 1)
Input ligand: FMN 200 uM
  apparent KD of MS2 coat protein: 69.5 nM
[1]
  apparent KD of MS2 coat protein: 24 nM
Input ligand: none
  apparent KD of MS2 coat protein: 32.5 nM

## GGAAGGAGGUCAGGAUAUGAAUGGAUGGGACAUGAGGAUCACCCAUGUAAUAGAAGAAAUCUACAUUAGAAGGGACAAGGAAGG [AK SSNG2-V2-5] (Eterna round: R96, puzzle: Same State NG 2)
Input ligand: FMN 200 uM
  apparent KD of MS2 coat protein: 105 nM
[1]
  apparent KD of MS2 coat protein: 83.2 nM
Input ligand: none
  apparent KD of MS2 coat protein: 130 nM

## AGCGCGAUCUCGCAGGAUAUCCACAUUCCUACAUGAGGAUCACCCAUGUCGCUGCAGGAUAUUAGGGAGAAGGGUGAUGUCGCGC [Arxeinor] (puzzle: Same State 2)
[3]
  apparent KD of MS2 coat protein: 21.4 nM
[2]
  apparent KD of MS2 coat protein: 32.6 nM
[4]
  apparent KD of MS2 coat protein: 34.8 nM

## GUGGUGUAGAUACAGGAUAUGUUGCUCGUAACAUGAGGAUCACCCAUGUAUCUAUGAGAAUAAAUGCAGAAGGGUGCACACCACU [Mat - Same State 2 - Mod of UCT - D74] (Eterna round: R96, puzzle: Same State 2)
Input ligand: FMN 200 uM
  apparent KD of MS2 coat protein: 26.1 nM
[1]
  apparent KD of MS2 coat protein: 197 nM
Input ligand: none
  apparent KD of MS2 coat protein: 489 nM

## AGAGCCGGCACUGAGGAUAUUCAUAUUAAAACAUGAGGAUCACCCAUGUAGGCCAGAAGGCCUUGGGAGAAGGCAGGUCGGCUCG [Mat - Same State 2 - Mod of UCT - D57] (puzzle: Same State 2)
[3]
  apparent KD of MS2 coat protein: 23.5 nM
[2]
  apparent KD of MS2 coat protein: 244 nM
[4]
  apparent KD of MS2 coat protein: 350 nM
